US20140274782A1, “AFFINITY REAGENTS AND METHODS FOR DETECTION, PURIFICATION, AND PROTEOMIC ANALYSIS OF METHYLATED PROTEINS” (The Board of Trustees of the Leland Stanford Junior …, priority 2013, published 2014)
Each block holds one molecule with its values, some of them ahead of it.

Experiments:
3×MBT domain of L3MBTL1 = experiment: Triple SILAC pull-down, 3xMBT/3xMBTD355N ratio (cytoplasmic, nuclear and chromatin fractions of 293T cells); format: binding, human; conditions: SILAC ratio, pull-down 3xMBT vs 3xMBTD355N; for 3xMBT/D355N UNC Heavy: experiment with UNC0638 in heavy SILAC media; for 3xMBT/D355N UNC Light: experiment with UNC0638 in light SILAC media;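 as to all read-outs here: proteins quantified with MaxQuant, requiring at least two unique peptides and quantification in both label directions, normalized to the mean of proteins from a digested loading control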
Experimental: For stable isotope labeling by amino acids in cell culture (SILAC) experiments HEK 293T cells were grown for at least six doublings in DMEM for SILAC supplemented with 10% dialyzed fetal bovine serum (FBS), 230 mg/L L-proline and either 100 mg/L each of L-lysine and L-arginine (“light” medium), D4-L-lysine and ^13C6-L-arginine (“medium” media), or ^13C6^15N2-L-lysine and ^13C6^15N4-L-arginine (Thermo Scientific). Heavy methyl labeling used DMEM without L-Methionine or L-Cysteine supplemented with D3^13C-L-Methionine (Sigma), L-Cysteine (Sigma) and 10% dialyzed FBS.
For UNC0638 treatments cells were treated for 24 hours with UNC0638 at 2.5 μM or DMSO vehicle control. One experiment treated cells in light media with UNC0638, the other treated cells in heavy media. Both experiments included cells in medium media treated with DMSO for negative control pull-down with 3×MBTD355N.
UNC0638 treatment experiments used a Q-Exactive mass spectrometer (ThermoFisher Scientific). A 25 cm HPLC column with 3 μm Reliasil (Orochem) was used to separate peptides over a 4 hour gradient from 0 to 75% acetonitrile. Ions were generated using a custom nanospray source flowing at 250 nL/minute. Mass spectrometry settings were 70,000 MS1 resolution, data dependent selection of up to 20 precursor ions per cycle, dynamic exclusion of 30 seconds and isolation window of 2 m/z. The nuclear fraction from the experiment using UNC0638 on cells in heavy media was additionally analyzed by 2D HPLC-MS/MS as described earlier.
Peptides were identified and quantified using MaxQuant version 1.2.2.5 (Cox and Mann, supra) with the following changes to default settings: mono- and di-methylation of lysine, and oxidation of methionine, and N-terminal acetylation as variable modifications, disabled “I=L”, up to three modifications per peptide, one missed cleavage, maximum charge of 5. Protein and peptide FDR were set to 1%, and proteins were filtered post-hoc for at least two unique peptides. Proteins were excluded from an experiment if they were not quantified in both labeling directions. Because FDR is unreliable for small numbers of peptides the modification site FDR was set to 10% and all methylated peptides were manually verified. […] Quantitative protein data was normalized to the mean value among proteins identified by analyzing 50 ng of digested loading control.
For UNC0638 experiments the treated vs. untreated ratio was determined by subtracting the value from 3×MBTD355N prior to dividing values from the light and heavy channels. Only proteins showing a two-fold signal to background ratio (3×MBT/3×MBTD355N) were evaluated as potential G9a/GLP substrates.

G9a and GLP = biological target: T1, G9a and GLP (Homo sapiens, UniProt Q96KQ7+Q9H9B1); experiment: Triple SILAC pull-down after UNC0638 treatment of 293T cells, DMSO/UNC0638 ratio of protein captured by 3×MBT; format: cell-based; parameters: cells were treated for 24 hours with UNC0638 at 2.5 μM or DMSO vehicle control; endogenous in cells; host or cells: HEK 293T; conditions: for Relative to UNC0638 UNC Heavy / Relative to UNC0638 UNC Light: SILAC ratio DMSO/UNC0638 of protein pulled down with 3xMBT; for Relative to UNC0638 UNC Heavy: UNC0638 in heavy SILAC media; for Relative to UNC0638 UNC Light: UNC0638 in light SILAC media; for Relative to UNC0638 Average: average of UNC Light and UNC Heavy experiments;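 as to all read-outs here: mass spectrometry (Q-Exactive) SILAC quantitation, DMSO/UNC0638 ratio computed after subtracting 3×MBTD355N mutant pull-down background, only proteins with at least twofold 3×MBT over mutant signal considered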
T1 sequence (Q96KQ7 2-1210 limits assumed): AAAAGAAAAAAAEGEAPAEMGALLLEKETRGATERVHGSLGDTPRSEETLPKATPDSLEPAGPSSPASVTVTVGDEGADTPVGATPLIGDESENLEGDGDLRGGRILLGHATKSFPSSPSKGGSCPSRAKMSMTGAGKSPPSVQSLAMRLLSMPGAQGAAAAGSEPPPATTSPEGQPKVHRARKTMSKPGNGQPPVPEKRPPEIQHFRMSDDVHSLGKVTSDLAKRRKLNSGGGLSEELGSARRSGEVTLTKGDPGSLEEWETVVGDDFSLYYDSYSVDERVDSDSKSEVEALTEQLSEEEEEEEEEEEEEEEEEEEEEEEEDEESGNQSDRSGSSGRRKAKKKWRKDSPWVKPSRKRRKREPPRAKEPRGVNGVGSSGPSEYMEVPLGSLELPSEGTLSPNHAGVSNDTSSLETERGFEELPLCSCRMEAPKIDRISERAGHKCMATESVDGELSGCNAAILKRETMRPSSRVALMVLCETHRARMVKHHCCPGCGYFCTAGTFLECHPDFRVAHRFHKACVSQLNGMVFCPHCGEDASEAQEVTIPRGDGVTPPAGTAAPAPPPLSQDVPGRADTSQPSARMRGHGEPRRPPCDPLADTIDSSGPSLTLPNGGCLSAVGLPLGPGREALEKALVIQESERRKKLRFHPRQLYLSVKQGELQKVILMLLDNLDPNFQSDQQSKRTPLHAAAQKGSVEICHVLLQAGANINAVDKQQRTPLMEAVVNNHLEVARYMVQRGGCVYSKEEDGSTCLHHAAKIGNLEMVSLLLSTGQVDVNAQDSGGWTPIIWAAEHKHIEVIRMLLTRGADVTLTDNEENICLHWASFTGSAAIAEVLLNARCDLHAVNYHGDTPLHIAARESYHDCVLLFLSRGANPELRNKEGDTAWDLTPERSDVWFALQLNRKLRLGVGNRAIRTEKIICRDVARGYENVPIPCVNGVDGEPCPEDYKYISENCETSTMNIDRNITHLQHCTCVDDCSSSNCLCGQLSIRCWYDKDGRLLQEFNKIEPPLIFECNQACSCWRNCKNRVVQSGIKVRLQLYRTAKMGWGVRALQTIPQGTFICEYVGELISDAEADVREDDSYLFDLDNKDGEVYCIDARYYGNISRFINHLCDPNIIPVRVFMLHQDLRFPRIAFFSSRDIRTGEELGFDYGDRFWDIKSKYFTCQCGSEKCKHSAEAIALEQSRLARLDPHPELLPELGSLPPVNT
T1 sequence (Q9H9B1 2-1298 limits assumed): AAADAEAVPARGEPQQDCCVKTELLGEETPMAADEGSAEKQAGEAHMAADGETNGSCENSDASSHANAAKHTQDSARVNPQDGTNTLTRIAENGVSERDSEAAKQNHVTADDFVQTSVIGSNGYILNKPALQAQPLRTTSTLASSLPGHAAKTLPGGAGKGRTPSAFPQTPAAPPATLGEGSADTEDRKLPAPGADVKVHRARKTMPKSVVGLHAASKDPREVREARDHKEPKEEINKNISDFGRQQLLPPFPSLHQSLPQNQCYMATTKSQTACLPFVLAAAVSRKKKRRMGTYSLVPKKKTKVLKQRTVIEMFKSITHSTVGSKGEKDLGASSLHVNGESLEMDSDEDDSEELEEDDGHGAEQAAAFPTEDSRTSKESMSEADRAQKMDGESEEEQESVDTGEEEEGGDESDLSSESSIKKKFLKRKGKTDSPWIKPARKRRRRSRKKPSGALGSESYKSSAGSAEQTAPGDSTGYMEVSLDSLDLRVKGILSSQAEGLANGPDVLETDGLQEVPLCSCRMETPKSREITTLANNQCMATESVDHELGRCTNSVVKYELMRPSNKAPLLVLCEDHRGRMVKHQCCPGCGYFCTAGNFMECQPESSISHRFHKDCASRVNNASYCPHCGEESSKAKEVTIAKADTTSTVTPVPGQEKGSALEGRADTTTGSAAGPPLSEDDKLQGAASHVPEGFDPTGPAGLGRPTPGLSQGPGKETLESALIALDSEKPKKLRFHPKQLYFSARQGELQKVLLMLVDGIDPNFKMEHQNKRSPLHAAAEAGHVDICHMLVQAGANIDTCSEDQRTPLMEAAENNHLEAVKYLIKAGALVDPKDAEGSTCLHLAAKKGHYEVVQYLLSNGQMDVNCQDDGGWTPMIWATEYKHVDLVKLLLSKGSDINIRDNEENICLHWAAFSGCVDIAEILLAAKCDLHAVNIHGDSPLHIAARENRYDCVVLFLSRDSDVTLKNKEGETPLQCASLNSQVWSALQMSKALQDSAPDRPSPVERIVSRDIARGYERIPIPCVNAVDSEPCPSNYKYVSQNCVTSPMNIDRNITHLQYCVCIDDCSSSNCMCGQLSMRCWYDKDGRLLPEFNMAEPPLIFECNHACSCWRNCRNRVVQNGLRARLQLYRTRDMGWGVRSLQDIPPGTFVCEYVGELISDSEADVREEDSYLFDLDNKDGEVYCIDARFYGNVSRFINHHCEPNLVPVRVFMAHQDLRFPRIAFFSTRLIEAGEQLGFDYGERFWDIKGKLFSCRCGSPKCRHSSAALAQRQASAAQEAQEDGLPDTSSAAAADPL

B3: C14orf166 (protein, UniProt Q9Y224 1-244, looked up)
RNA transcription, …: MFRRKLTALDYHNPAGFNCKDETEFRNFIVWLEDQKIRHYKIEDRGNLRNIHSSDWPKFFEKYLRDVNCPFKIQDRQEAIDWLLGLAVRLEYGDNAEKYKDLVPDNSKTADNATKNAEPLINLDVNNPDFKAGVMALANLLQIQRHDDYLVMLKAIRILVQERLTQDAVAKANQTKEGLPVALDKHILGFDTGDAVLNEAAQILRLLHIEELRELQTKINEAIVAVQAIIADPKTDHRLGKVGR
- 3xMBT/D355N UNC Heavy (3×MBT domain of L3MBTL1): 3.09 log base 2
- 3xMBT/D355N UNC Light (3×MBT domain of L3MBTL1): 3.13 log base 2
- Relative to UNC0638 UNC Heavy (G9a and GLP): 0.09 log base 2
- Relative to UNC0638 UNC Light (G9a and GLP): 0.24 log base 2
- Relative to UNC0638 Average (G9a and GLP): 0.16 log base 2

B4: DRG1 (protein, UniProt Q9Y295 2-367, looked up)
Developmentally-regulated …: SSTLAKIAEIEAEMARTQKNKATAHHLGLLKARLAKLRRELITPKGGGGGGPGEGFDVAKTGDARIGFVGFPSVGKSTLLSNLAGVYSEVAAYEFTTLTTVPGVIRYKGAKIQLLDLPGIIEGAKDGKGRGRQVIAVARTCNLILIVLDVLKPLGHKKIIENELEGFGIRLNSKPPNIGFKKKDKGGINLTATCPQSELDAETVKSILAEYKIHNADVTLRSDATADDLIDVVEGNRVYIPCIYVLNKIDQISIEELDIIYKVPHCVPISAHHRWNFDDLLEKIWDYLKLVRIYTKPKGQLPDYTSPVVLPYSRTTVEDFCMKIHKNLIKEFKYALVWGLSVKHNPQKVGKDHTLEDEDVIQIVKK
- 3xMBT/D355N UNC Heavy (3×MBT domain of L3MBTL1): 3.49 log base 2
- 3xMBT/D355N UNC Light (3×MBT domain of L3MBTL1): 3.66 log base 2
- Relative to UNC0638 UNC Heavy (G9a and GLP): 0.36 log base 2
- Relative to UNC0638 UNC Light (G9a and GLP): −0.03 log base 2
- Relative to UNC0638 Average (G9a and GLP): 0.16 log base 2

Continued, in another order:

- Relative to UNC0638 UNC Heavy (G9a and GLP): 0.05 log base 2
- Relative to UNC0638 UNC Light (G9a and GLP): 0.23 log base 2
- Relative to UNC0638 Average (G9a and GLP): 0.14 log base 2
B1: MTHFD1 (protein, UniProt P11586 1-935, looked up)
C-1-tetrahydrofolate …: MAPAEILNGKEISAQIRARLKNQVTQLKEQVPGFTPRLAILQVGNRDDSNLYINVKLKAAEEIGIKATHIKLPRTTTESEVMKYITSLNEDSTVHGFLVQLPLDSENSINTEEVINAIAPEKDVDGLTSINAGKLARGDLNDCFIPCTPKGCLELIKETGVPIAGRHAVVVGRSKIVGAPMHDLLLWNNATVTTCHSKTAHLDEEVNKGDILVVATGQPEMVKGEWIKPGAIVIDCGINYVPDDKKPNGRKVVGDVAYDEAKERASFITPVPGGVGPMTVAMLMQSTVESAKRFLEKFKPGKWMIQYNNLNLKTPVPSDIDISRSCKPKPIGKLAREIGLLSEEVELYGETKAKVLLSALERLKHRPDGKYVVVTGITPTPLGEGKSTTTIGLVQALGAHLYQNVFACVRQPSQGPTFGIKGGAAGGGYSQVIPMEEFNLHLTGDIHAITAANNLVAAAIDARIFHELTQTDKALFNRLVPSVNGVRRFSDIQIRRLKRLGIEKTDPTTLTDEEINRFARLDIDPETITWQRVLDTNDRFLRKITIGQAPTEKGHTRTAQFDISVASEIMAVLALTTSLEDMRERLGKMVVASSKKGEPVSAEDLGVSGALTVLMKDAIKPNLMQTLEGTPVFVHAGPFANIAHGNSSIIADRIALKLVGPEGFVVTEAGFGADIGMEKFFNIKCRYSGLCPHVVVLVATVRALKMHGGGPTVTAGLPLPKAYIQENLELVEKGFSNLKKQIENARMFGIPVVVAVNAFKTDTESELDLISRLSREHGAFDAVKCTHWAEGGKGALALAQAVQRAAQAPSSFQLLYDLKLPVEDKIRIIAQKIYGADDIELLPEAQHKAEVYTKQGFGNLPICMAKTHLSLSHNPEQKGVPTGFILPIRDIRASVGAGFLYPLVGTMSTMPGLPTRPCFYDIDLDPETEQVNGLF
- 3xMBT/D355N UNC Heavy (3×MBT domain of L3MBTL1): 1.99 log base 2
- 3xMBT/D355N UNC Light (3×MBT domain of L3MBTL1): 2.35 log base 2

- Relative to UNC0638 UNC Heavy (G9a and GLP): 0.16 log base 2
- Relative to UNC0638 UNC Light (G9a and GLP): 0.17 log base 2
- Relative to UNC0638 Average (G9a and GLP): 0.16 log base 2
B2: PABPC4 (protein, UniProt Q13310 1-644, looked up)
Polyadenylate-binding protein …: MNAAASSYPMASLYVGDLHSDVTEAMLYEKFSPAGPVLSIRVCRDMITRRSLGYAYVNFQQPADAERALDTMNFDVIKGKPIRIMWSQRDPSLRKSGVGNVFIKNLDKSIDNKALYDTFSAFGNILSCKVVCDENGSKGYAFVHFETQEAADKAIEKMNGMLLNDRKVFVGRFKSRKEREAELGAKAKEFTNVYIKNFGEEVDDESLKELFSQFGKTLSVKVMRDPNGKSKGFGFVSYEKHEDANKAVEEMNGKEISGKIIFVGRAQKKVERQAELKRKFEQLKQERISRYQGVNLYIKNLDDTIDDEKLRKEFSPFGSITSAKVMLEDGRSKGFGFVCFSSPEEATKAVTEMNGRIVGSKPLYVALAQRKEERKAHLTNQYMQRVAGMRALPANAILNQFQPAAGGYFVPAVPQAQGRPPYYTPNQLAQMRPNPRWQQGGRPQGFQGMPSAIRQSGPRPTLRHLAPTGSECPDRLAMDFGGAGAAQQGLTDSCQSGGVPTAVQNLAPRAAVAAAAPRAVAPYKYASSVRSPHPAIQPLQAPQPAVHVQGQEPLTASMLAAAPPQEQKQMLGERLFPLIQTMHSNLAGKITGMLLEIDNSELLHMLESPESLRSKVDEAVAVLQAHHAKKEAAQKVGAVAAATS
- 3xMBT/D355N UNC Heavy (3×MBT domain of L3MBTL1): 2.94 log base 2
- 3xMBT/D355N UNC Light (3×MBT domain of L3MBTL1): 3.59 log base 2
